Laboratory results from the supplement of paper PMC10567573.

B1: FEM1A (parent)
chain: PCCSSSPEEPLNGESYESCCPTSR
B2: FBXO3 (parent)
chain: FIDTYSDVGRYIDHYAAIKKAWDD

Variants of: B1
Assay: protein stability index of a GFP-peptide fusion (GPS, HEK-293T) (PSI 1-6); higher = more stable
Conditions: c terminus: a fixed tail appended
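Note: lentivirally expressed fusions sorted by FACS into six bins by GFP to DsRed ratio, PSI derived from sequencing read proportions per bin multiplied by bin number.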

Row | Variant | protein stability index
1 | C3H | 4.85
2 | C3E | 5.27
3 | C3S | 5.22
4 | C3F | 4.83
5 | C3Y | 4.66
6 | C3N | 4.75
7 | C3G | 4.91
8 | C3K | 4.7
9 | C3T | 5.06
10 | C3Q | 5.4
11 | C3L | 4.76
12 | C3P | 4.95
13 | C3W | 4.79
14 | C3R | 4.23
15 | C3V | 5
16 | C3D | 5.82
17 | C3A | 4.02
18 | C3M | 5.05
19 | C3I | 4.19
20 | S4F | 3.33
21 | S4A | 3.72
22 | S4W | 3.85
23 | S4I | 3.81
24 | S4G | 3.5

Row | Variant | protein stability index
25 | S4N | 3.95
26 | S4R | 3.14
27 | S4P | 4.58
28 | S4Y | 3.37
29 | S4K | 3.65
30 | S4C | 1.94
31 | S4V | 4.1
32 | S4D | 4.42
33 | S4H | 4.21
34 | S4T | 4.13
35 | S4E | 3.87
36 | S4L | 2.98
37 | S4M | 3.19
38 | S4Q | 3.67
39 | C2W | 4.37
40 | C2S | 4.21
41 | C2K | 4.65
42 | C2N | 5.15
43 | C2Q | 4.89
44 | C2E | 4.77
45 | C2V | 5.21
46 | C2Y | 4.62
47 | C2F | 4.55
48 | C2I | 3.92

Row | Variant | protein stability index
49 | C2D | 5.12
50 | C2T | 5.23
51 | C2G | 4.19
52 | C2M | 4.98
53 | C2H | 4.79
54 | C2P | 5.66
55 | C2L | 4.75
56 | S5F | 2.48
57 | S5E | 4.24
58 | S5C | 3.38
59 | S5G | 3.66
60 | S5Q | 3.6
61 | S5L | 3.02
62 | S5M | 2.53
63 | S5D | 4.85
64 | S5H | 4.12
65 | S5A | 3.49
66 | S5R | 3.28
67 | S5P | 3.49
68 | S5Y | 2.6
69 | S5W | 3.02
70 | S5T | 3.9
71 | S5V | 4.45
72 | S5K | 2.85

Row | Variant | protein stability index
73 | S5I | 3.4
74 | S5N | 3.47
75 | P1R | 3.47
76 | P1L | 3.69
77 | P1F | 3.17
78 | P1K | 2.47
79 | P1G | 4.6
80 | P1Q | 3.95
81 | P1W | 2.77
82 | P1D | 4.55
83 | P1Y | 3.26
84 | P1I | 3.97
85 | P1T | 3.6
86 | P1H | 3.85
87 | P1N | 3.96
88 | P1A | 4.21
89 | P1E | 4.44
90 | P1S | 3.54
91 | P1M | 3.67
92 | P1C | 1.83
93 | P1V | 3.84
94 | S6C | 3.63
95 | S6A | 3.22

Variants of: B2
Assay: as above
Conditions: c terminus: a fixed tail appended

Row | Variant | protein stability index
96 | D24F | 1.67
97 | D24V | 2.6
98 | D24L | 1.79
99 | D24M | 1.82
100 | D24W | 2.07
101 | D24A | 2.83
102 | D24I | 2.86
103 | D24K | 1.58
104 | D24G | 1.61
105 | D24T | 2.51
106 | D24N | 1.54
107 | D24C | 1.32
108 | D24E | 2.4
109 | D24Y | 2.19
110 | D24R | 1.99
111 | D24Q | 2.39
112 | D24P | 2.28
113 | D24S | 1.44
114 | D24H | 2.7
115 | A21W | 1.7
116 | A21N | 2
117 | A21T | 2.23
118 | A21V | 1.22
119 | A21S | 2.12

Row | Variant | protein stability index
120 | A21K | 1.88
121 | A21Y | 1.85
122 | A21M | 3.02
123 | A21L | 1.72
124 | A21P | 1.97
125 | A21I | 2.48
126 | A21R | 1.96
127 | A21G | 3.18
128 | A21Q | 1.82
129 | A21H | 1.61
130 | W22M | 1.64
131 | W22T | 1.95
132 | W22P | 1.69
133 | W22R | 1.86
134 | W22V | 1.61
135 | W22Q | 1.26
136 | W22H | 2.02
137 | W22A | 2.05
138 | W22I | 2.1
139 | W22G | 1.85
140 | W22S | 1.75
141 | W22N | 1.68
142 | W22L | 2.29
143 | W22K | 3

Row | Variant | protein stability index
144 | W22C | 1.95
145 | W22E | 2.1
146 | W22F | 1.39
147 | W22Y | 2.3
148 | W22D | 2.05
149 | D23R | 1.72
150 | D23V | 1.48
151 | D23W | 3.21
152 | D23S | 1.64
153 | D23T | 1.97
154 | D23F | 1.87
155 | D23H | 1.81
156 | D23I | 3.3
157 | D23N | 2.29
158 | D23G | 1.35
159 | D23C | 2.82
160 | D23Y | 2.04
161 | D23E | 2.31
162 | D23L | 1.61
163 | D23K | 1.7
164 | D23A | 1.74
165 | D23Q | 1.44
166 | D23M | 2.56
167 | D23P | 2.1
